The target in data set [1] is T1, beta-NGF (nerve growth factor) (Homo sapiens, UniProt P01138 P01138:122-241). Description: SPR; NGF-TrkA and NGF-P75; no PC-12 inhibition. The following applies: tags: R&D Systems human NGF; chain copies: 2. The procedure: (§1) As directed in BIAcore Company's protocol, Protein A (21181, PIERCE) was immobilized on a CM5 sensor chip. About 1100 RU of human Trk A-Fc fused with the Fc portion of IgG (175-TK, R&D systems) was immobilized thereon. As the analyte, a mixture of NGF (0.1 μM) and each aptamer (0.33 μM) was injected after being allowed to stand for 30 minutes. […] When NGF binds stronger to a receptor than an aptamer, the aptamer may be removed and NGF may bind to the receptor. […] Using the binding amount of NGF and NGF receptor without an aptamer as 100, the binding amount of NGF and NGF receptor added with an aptamer was determined as a correction value. Here, the binding amount is the RU value at the peak top of the sensorgram of BIAcore (RU value immediately after completion of NGF injection). […] A similar experiment was performed for another receptor P75 (p75-Fc; R&D systems).
T1 sequence (P01138 122-241, one chain of several): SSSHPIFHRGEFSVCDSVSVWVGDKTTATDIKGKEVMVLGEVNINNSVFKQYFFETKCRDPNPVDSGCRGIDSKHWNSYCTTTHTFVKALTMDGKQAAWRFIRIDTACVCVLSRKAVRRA

The target of data set [2] is T1, beta-NGF (nerve growth factor). Description: SPR; blocks NGF-TrkA and NGF-P75; PC-12 neurite inhibition + (Table 2). The following applies: tags: R&D Systems; chain copies: 2. The procedure:
as §1

The target is the same in data set [3]. Briefly: cell_activity; neurite outgrowth, Neuroscreen-1 cells. The following applies: tags: R&D Systems; chain copies: 2. As to the method: The neurite outgrowth inhibitory activity of aptamer was evaluated by using Neuroscreen-1 cell, which is a subclone of PC-12 cells. 2500 Cells per well were cultured for one day in an RPMI-1640 medium containing 2.5% horse serum and 1.25% fetal bovine serum in a 96 well flat-bottom plate coated with collagen type IV. A mixed solution of NGF (final concentration 15 ng/ml or 1.1 nM) prereacted in a serum-free RPMI-1640 medium at room temperature or 37° C. for 30 min to 1 hr and an aptamer (final concentration 500-3 nM) was added. Two or three days later, the cytoplasm and nuclei were stained using Cellomics Neurite Outgrowth Kits (manufactured by Thermo Scientific), and neurite length per cell was measured by Cellomics ArrayScan VTI (manufactured by Thermo Scientific). With the neurite length per cell obtained by culturing the cell for 2 days with the addition of NGF alone as inhibitory activity 0%, and that of the cell obtained by NGF free culture as inhibitory activity 100%, the inhibitory activity of the aptamer was calculated from the neurite length per cell obtained by culturing with the addition of NGF and the aptamer in mixture. […] When the inhibitory activity was 0% or below, ‘0%’ is indicated. When it was not less than 100%, ‘100%’ is indicated. The 50% inhibitory concentration was determined from the concentrations at two, above and below points sandwiching the 50% inhibitory activity.

Data set [4] shares this target. Description: SPR; blocks NGF-TrkA and NGF-P75. The following applies: tags: R&D Systems; chain copies: 2. As to the method:
as §1

GUGGAGCUGUUAAACAACAAGUGAAAAAAACCAC (ssRNA, 2'-F pyrimidines) [SEQ34 aptamer] gave an activity in data set [1] of at least 60 % inhibition.

On to UGUGGAGCUGCUUAAACAAGCAAGUGAAAAAAACCACA (ssRNA, 2'-F all pyrimidines) [SEQ32 aptamer], for which the activity in data set [2] is at least 60 % inhibition.

In turn, GGGAGCUGCUUAAACAAGCAAGUGAAAAAAACCC (ssRNA, 2'-F pyrimidines) [SEQ31 aptamer] showed an activity in data set [1] of at least 60 % inhibition.

Molecule UGUGGAGCUGCUAAACAGCAAGUGAAAAAAACCACA (ssRNA, 2'-F pyrimidines) [SEQ33 aptamer] registered an activity in data set [1] of at least 60 % inhibition.

B1: SEQ65 aptamer (ssRNA)
RNA: GGGAGAACUUCGACCAGAAGUGUGAAAAAAACCCAAAUCGAGCACAAAAUUAUGUGCGCAUACAUGGAUCCUCA
modifications: 2'-F all pyrimidines
B1 came in with an IC50 in data set [3] of 22.2 nM. Also, the activity in data set [4] was at least 60 % inhibition.

B2: SEQ12 aptamer (ssRNA)
RNA: GGGAAGCCUGUGGAGCUGCGAAACAGUGAAACAAACCACAGACUGAGAAAGCAGUAACAGCAUUGUCACCAACAACUGG
modifications: 2'-F all pyrimidines
As to B2, the activity in data set [2] was at least 60 % inhibition.

B3: SEQ1 aptamer (ssRNA)
RNA: GGGAAGCCUGUGGAGCUGCAGGAUGAAAAAAACCCAAAAACAAAGACAAUGAUUGAGUAGCAUUGUCACCAACAACUGG
modifications: 2'-F all pyrimidines
For B3, in data set [2], the activity is at least 60 % inhibition.

B4: SEQ3 aptamer (ssRNA)
RNA: GGGAAGCCUGUGGAGCUGCAGGAUGAAAAAAACCCAAAAUAAGUAGAAAUGACAGAAUGGCAUUGUCACCAACAACUGG
modifications: 2'-F all pyrimidines
For the molecule B4, the activity in data set [2] is at least 60 % inhibition.

B5: SEQ61 aptamer (ssRNA)
RNA: GGGAGAACUUCGACCAGAAGGUCGUAACGAAUAAAACUCCUGCACAAAAAUAUGUGCGCAUACAUGGAUCCUCA
modifications: 2'-F all pyrimidines
B5: inhibition in data set [3] was half-maximal at 20.7 nM (IC50). Also, in data set [4], the activity was at least 60 % inhibition.

B6: SEQ9 aptamer (ssRNA)
RNA: GGGAAGCCUGUGGAGCUGCUCCACAAGGAUGAAAAAAACCCAAAUAAUAUAUUUAAUCAGCAUUGUCACCAACAACUGG
modifications: 2'-F all pyrimidines
For B6, in data set [2], the activity was at least 60 % inhibition.

B7: SEQ5 aptamer (ssRNA)
RNA: GGGAAGCCUGUGGAGCUGCUUAAACAAGCAAGUGAAAAAAACCACAGCAAAUGUAAAAAGCAUUGUCACCAACAACUGG
modifications: 2'-F all pyrimidines
B7: in data set [2], the activity is at least 60 % inhibition.

B8: SEQ84 aptamer (ssRNA)
RNA: GGGAGAACUUCGACCAGAAGUGAAAGAAACUCCCGAUGAAAGAUGUAACAAACCAUAUGUGCGCAUACAUGGAUCCUC
modifications: 2'-F all pyrimidines
In data set [3], B8 showed an IC50 of 14.6 nM. In data set [4], this molecule displayed an activity of at least 60 % inhibition.

B9: SEQ6 aptamer (ssRNA)
RNA: GGGAAGCCUGUGGAGCUGCAGGAUGAAAAAAACCCAAAAUUAAAUAAAAAAUAGACGGUGCAUUGUCACCAACAACUGG
modifications: 2'-F all pyrimidines
In the case of B9, the activity in data set [2] is at least 60 % inhibition.

B10: SEQ7 aptamer (ssRNA)
RNA: GGGAAGCCUGUGGAGCUGCAGGAUGAAAAAAACCCAAAAUUAGAUAAAAAAUAGACGGUGCAUUGUCACCAACAACUGG
modifications: 2'-F all pyrimidines
For B10, the activity in data set [2] was at least 60 % inhibition.

B11: SEQ4 aptamer (ssRNA)
RNA: GGGAAGCCUGUGGAGCUGCAGGAUGAAAAAAACCCAAAUAUGACAAAUAAAACGGCAACGCAUUGUCACCAACAACUGG
modifications: 2'-F all pyrimidines
Turning to B11, the activity in data set [2] is at least 60 % inhibition.

On to GGGAUAAAAAUAGAGUUUGAUAAACACCUGUAUUAAAACCC (ssRNA, 2'-F all pyrimidines) [SEQ30 aptamer], for which the activity in data set [2] is at least 60 % inhibition.

B12: SEQ8 aptamer (ssRNA)
RNA: GGGAAGCCUGUGGAGCUGCGGAUAAAAAUAGAGUUUGAUAAACACCUGUAUUAAAACCGCAUUGUCACCAACAACUGG
modifications: 2'-F all pyrimidines
Consider B12, for which the activity in data set [2] is at least 60 % inhibition.

Source of the values: patent US20110251266, “APTAMER FOR NGF AND USE THEREOF” (Shionogi & Co., Ltd., published 2011).
